{"source": "patent US20240261333A1", "about": "“NOVEL TARGETS FOR ENHANCING ANTI-TUMOR IMMUNITY” (THE BROAD INSTITUTE, INC., priority 2021, published 2024)", "key": {"[1]": {"target": "PURA (human) (UniProt Q00577)", "sequence (Q00577 2-322 limits assumed)": "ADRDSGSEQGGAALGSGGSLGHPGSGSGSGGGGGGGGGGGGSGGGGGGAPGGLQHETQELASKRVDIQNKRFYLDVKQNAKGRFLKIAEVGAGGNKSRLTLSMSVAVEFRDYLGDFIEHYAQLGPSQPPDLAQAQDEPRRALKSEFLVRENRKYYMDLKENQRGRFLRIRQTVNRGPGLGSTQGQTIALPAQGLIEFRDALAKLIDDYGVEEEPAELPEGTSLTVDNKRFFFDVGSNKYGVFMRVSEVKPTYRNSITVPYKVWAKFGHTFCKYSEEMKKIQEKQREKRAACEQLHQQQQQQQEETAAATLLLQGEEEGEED", "experiment": "co-IP with anti-FLAG, C-FLAG B3GNT2, mass spectrometry"}, "[2]": {"target": "TPM3 (human) (UniProt P06753)", "sequence (P06753 other isoform, or with tags, fused parts or gaps limits assumed)": "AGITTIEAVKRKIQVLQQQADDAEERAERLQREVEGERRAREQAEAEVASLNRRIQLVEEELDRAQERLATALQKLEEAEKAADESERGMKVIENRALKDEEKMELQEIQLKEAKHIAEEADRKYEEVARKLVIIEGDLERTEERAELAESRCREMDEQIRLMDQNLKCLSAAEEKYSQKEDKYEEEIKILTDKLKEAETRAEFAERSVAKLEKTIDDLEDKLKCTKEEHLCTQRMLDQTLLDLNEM", "experiment": "co-IP with anti-FLAG, C-FLAG B3GNT2, mass spectrometry"}, "[3]": {"target": "RCN2 (human) (UniProt Q14257)", "experiment": "co-IP/MS, IgG control IP of C-FLAG B3GNT2 cell lysate"}, "[4]": {"target": "RPS3A (human) (UniProt P61247)", "experiment": "co-IP/MS, IgG control IP of C-FLAG B3GNT2 cell lysate"}, "[5]": {"target": "RPS5 (human) (UniProt P46782)", "experiment": "co-IP/MS, IgG control IP of C-FLAG B3GNT2 cell lysate"}, "[6]": {"target": "SLC25A4 (human) (UniProt P12235)", "experiment": "co-IP/MS, IgG control IP of C-FLAG B3GNT2 cell lysate"}, "[7]": {"target": "CANX (human) (UniProt P27824)", "sequence (P27824 21-592 limits assumed)": "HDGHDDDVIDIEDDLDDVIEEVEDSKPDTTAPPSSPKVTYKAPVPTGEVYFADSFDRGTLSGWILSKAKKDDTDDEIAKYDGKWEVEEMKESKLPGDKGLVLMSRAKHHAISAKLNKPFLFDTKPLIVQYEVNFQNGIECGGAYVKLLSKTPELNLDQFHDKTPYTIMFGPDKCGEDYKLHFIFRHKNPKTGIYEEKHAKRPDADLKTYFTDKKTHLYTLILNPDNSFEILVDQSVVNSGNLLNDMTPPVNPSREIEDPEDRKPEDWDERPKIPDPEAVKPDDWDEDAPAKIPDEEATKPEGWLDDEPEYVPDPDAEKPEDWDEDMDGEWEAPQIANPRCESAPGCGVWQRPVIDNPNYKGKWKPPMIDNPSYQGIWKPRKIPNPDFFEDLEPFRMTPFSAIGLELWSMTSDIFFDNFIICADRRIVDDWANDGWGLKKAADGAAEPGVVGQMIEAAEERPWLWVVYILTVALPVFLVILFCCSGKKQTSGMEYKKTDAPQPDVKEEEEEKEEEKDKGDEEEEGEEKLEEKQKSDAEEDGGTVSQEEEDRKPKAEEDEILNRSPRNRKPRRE", "experiment": "co-IP/MS, IgG control IP of C-FLAG B3GNT2 cell lysate"}, "[8]": {"target": "CKAP4 (human) (UniProt Q07065)", "experiment": "co-IP/MS, IgG control IP of C-FLAG B3GNT2 cell lysate"}, "[9]": {"target": "PCBP1 (human) (UniProt Q15365)", "sequence (Q15365 whole entry)": "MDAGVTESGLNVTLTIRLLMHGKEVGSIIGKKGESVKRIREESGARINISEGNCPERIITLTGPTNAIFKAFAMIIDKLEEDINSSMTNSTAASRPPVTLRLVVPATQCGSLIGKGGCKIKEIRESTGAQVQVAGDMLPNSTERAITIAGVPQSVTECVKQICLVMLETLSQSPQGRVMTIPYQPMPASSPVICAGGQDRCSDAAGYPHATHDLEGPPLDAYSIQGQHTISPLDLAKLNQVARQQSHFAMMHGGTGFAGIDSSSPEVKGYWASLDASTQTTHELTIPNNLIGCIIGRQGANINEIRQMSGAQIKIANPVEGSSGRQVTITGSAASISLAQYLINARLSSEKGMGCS", "experiment": "co-IP/MS, IgG control IP of C-FLAG B3GNT2 cell lysate"}, "[10]": {"target": "RPS9 (human) (UniProt P46781)", "experiment": "co-IP/MS, IgG control IP of C-FLAG B3GNT2 cell lysate"}, "[11]": {"target": "FAM3C (human) (UniProt Q92520)", "sequence (Q92520 25-227 limits assumed)": "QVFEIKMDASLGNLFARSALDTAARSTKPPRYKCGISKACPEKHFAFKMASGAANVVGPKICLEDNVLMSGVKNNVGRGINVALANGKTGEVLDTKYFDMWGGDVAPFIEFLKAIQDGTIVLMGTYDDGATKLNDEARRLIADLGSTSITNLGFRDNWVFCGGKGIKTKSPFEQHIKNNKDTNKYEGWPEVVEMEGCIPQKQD", "experiment": "co-IP/MS, IgG control IP of C-FLAG B3GNT2 cell lysate"}, "[12]": {"target": "RPL14 (human) (UniProt P50914)", "experiment": "co-IP/MS, IgG control IP of C-FLAG B3GNT2 cell lysate"}, "[13]": {"target": "GCN1 (human) (UniProt Q92616)", "sequence (Q92616 2-2671 limits assumed)": "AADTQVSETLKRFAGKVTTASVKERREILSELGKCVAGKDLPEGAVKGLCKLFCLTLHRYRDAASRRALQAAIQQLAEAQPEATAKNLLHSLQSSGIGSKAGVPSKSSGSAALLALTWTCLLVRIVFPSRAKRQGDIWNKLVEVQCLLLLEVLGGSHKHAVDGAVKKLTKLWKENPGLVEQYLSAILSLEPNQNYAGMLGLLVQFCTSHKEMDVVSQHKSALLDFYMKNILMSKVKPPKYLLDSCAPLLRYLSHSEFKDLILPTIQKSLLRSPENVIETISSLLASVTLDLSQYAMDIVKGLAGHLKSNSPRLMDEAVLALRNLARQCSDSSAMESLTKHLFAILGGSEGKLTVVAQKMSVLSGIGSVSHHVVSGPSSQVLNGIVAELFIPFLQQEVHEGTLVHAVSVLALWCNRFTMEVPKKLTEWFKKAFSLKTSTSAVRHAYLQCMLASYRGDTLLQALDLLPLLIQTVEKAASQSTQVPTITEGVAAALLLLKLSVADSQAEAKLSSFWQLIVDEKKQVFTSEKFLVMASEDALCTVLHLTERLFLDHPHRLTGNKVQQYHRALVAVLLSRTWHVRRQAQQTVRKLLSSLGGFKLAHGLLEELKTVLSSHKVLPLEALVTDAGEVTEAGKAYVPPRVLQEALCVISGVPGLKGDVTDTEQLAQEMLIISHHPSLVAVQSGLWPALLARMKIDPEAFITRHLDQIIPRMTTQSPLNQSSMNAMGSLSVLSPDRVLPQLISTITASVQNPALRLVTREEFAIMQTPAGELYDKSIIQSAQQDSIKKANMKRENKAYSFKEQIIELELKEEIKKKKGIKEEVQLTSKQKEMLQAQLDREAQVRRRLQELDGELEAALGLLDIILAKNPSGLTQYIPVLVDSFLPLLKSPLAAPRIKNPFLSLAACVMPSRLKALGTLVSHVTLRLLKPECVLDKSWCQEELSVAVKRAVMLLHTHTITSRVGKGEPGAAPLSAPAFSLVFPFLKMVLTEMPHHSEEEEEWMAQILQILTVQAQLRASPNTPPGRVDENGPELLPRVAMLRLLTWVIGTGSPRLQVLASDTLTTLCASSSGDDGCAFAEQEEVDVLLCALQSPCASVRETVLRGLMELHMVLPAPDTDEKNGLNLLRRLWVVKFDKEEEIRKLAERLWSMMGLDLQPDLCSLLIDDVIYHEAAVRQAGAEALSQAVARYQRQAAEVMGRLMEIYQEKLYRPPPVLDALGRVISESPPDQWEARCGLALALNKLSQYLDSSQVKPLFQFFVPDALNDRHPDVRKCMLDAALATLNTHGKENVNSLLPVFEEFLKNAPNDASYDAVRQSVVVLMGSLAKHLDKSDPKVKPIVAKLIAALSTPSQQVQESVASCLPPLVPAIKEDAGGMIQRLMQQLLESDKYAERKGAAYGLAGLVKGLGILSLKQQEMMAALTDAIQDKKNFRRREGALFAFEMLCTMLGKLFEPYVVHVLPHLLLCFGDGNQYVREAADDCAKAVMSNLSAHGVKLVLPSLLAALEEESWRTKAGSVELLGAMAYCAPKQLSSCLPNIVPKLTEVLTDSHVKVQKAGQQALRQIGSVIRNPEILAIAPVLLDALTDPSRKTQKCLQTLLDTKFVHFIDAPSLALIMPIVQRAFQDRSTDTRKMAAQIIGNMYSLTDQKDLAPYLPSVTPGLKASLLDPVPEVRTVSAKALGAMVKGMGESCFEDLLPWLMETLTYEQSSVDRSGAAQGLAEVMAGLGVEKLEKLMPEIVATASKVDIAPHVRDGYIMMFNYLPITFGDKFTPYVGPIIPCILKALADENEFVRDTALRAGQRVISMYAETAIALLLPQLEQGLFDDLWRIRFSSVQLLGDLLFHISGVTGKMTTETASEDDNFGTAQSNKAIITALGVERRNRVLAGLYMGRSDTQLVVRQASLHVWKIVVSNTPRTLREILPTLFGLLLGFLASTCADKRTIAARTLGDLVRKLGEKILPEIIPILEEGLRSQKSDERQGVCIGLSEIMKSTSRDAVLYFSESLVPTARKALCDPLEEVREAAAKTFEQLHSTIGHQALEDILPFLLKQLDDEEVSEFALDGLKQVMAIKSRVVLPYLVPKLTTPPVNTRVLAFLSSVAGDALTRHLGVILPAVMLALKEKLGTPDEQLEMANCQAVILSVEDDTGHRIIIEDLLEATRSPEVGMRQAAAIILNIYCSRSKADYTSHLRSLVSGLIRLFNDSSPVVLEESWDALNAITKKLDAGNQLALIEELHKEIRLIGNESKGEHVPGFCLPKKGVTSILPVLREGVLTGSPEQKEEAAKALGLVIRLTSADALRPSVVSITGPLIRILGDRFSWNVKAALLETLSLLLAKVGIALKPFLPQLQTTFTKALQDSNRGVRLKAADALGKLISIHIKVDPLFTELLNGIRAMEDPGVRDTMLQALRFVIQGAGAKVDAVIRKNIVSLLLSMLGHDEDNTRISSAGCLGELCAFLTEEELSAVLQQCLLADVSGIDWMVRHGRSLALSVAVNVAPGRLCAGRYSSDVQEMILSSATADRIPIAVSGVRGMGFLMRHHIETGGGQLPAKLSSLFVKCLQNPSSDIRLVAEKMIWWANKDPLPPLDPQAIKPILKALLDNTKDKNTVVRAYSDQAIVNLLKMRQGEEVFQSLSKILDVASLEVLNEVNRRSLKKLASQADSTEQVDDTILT", "experiment": "co-IP/MS, IgG control IP of C-FLAG B3GNT2 cell lysate"}, "[14]": {"target": "CALU (human) (UniProt O43852)", "experiment": "co-IP/MS, IgG control IP of C-FLAG B3GNT2 cell lysate"}, "[15]": {"target": "CASP14 (human) (UniProt P31944)", "experiment": "co-IP/MS, IgG control IP of C-FLAG B3GNT2 cell lysate"}, "[16]": {"target": "RPS7 (human) (UniProt P62081)", "experiment": "co-IP/MS, IgG control IP of C-FLAG B3GNT2 cell lysate"}, "[17]": {"target": "PIP (human) (UniProt P12273)", "sequence (P12273 29-146 limits assumed)": "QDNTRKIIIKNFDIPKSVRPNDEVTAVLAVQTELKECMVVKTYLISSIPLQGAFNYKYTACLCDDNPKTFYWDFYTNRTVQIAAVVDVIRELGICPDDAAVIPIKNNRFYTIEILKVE", "experiment": "co-IP/MS, IgG control IP of C-FLAG B3GNT2 cell lysate"}, "[18]": {"target": "SQSTM1 (human) (UniProt Q13501)", "experiment": "co-IP/MS, IgG control IP of C-FLAG B3GNT2 cell lysate"}, "[19]": {"target": "ERLIN2 (human) (UniProt O94905)", "experiment": "co-IP/MS, IgG control IP of C-FLAG B3GNT2 cell lysate"}, "[20]": {"target": "RPL13A (human) (UniProt P40429)", "experiment": "co-IP/MS, IgG control IP of C-FLAG B3GNT2 cell lysate"}, "[21]": {"target": "LRP1 (human) (UniProt Q07954)", "experiment": "co-IP/MS, IgG control IP of C-FLAG B3GNT2 cell lysate"}, "[22]": {"target": "CAPZA1 (human) (UniProt P52907)", "experiment": "co-IP/MS, IgG control IP of C-FLAG B3GNT2 cell lysate"}, "[23]": {"target": "FKBP10 (human) (UniProt Q96AY3)", "sequence (Q96AY3 27-582 limits assumed)": "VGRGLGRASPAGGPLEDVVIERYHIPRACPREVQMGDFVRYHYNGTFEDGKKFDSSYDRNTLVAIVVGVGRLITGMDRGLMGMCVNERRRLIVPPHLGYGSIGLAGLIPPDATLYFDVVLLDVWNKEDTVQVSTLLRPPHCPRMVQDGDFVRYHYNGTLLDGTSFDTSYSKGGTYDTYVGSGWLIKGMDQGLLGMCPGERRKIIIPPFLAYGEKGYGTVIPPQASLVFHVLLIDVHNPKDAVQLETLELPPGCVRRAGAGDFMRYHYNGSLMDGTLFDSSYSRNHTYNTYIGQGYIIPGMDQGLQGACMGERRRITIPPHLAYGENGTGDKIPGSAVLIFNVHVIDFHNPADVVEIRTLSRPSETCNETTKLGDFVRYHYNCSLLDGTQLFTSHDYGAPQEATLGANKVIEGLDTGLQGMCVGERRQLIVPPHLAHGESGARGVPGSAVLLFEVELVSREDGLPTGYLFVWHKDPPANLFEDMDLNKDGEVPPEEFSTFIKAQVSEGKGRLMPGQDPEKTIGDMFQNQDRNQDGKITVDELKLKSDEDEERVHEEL", "experiment": "co-IP/MS, IgG control IP of C-FLAG B3GNT2 cell lysate"}, "[24]": {"target": "RPL24 (human) (UniProt P83731)", "experiment": "co-IP/MS, IgG control IP of C-FLAG B3GNT2 cell lysate"}, "[25]": {"target": "PRDX2 (human) (UniProt P32119)", "experiment": "co-IP/MS, IgG control IP of C-FLAG B3GNT2 cell lysate"}, "[26]": {"target": "IPO4 (human) (UniProt Q8TEX9)", "experiment": "co-IP/MS, IgG control IP of C-FLAG B3GNT2 cell lysate"}, "[27]": {"target": "ATP1A1 (human) (UniProt P05023)", "experiment": "co-IP/MS, IgG control IP of C-FLAG B3GNT2 cell lysate"}, "[28]": {"target": "RPL23A (human) (UniProt P62750)", "experiment": "co-IP/MS, IgG control IP of C-FLAG B3GNT2 cell lysate"}, "[29]": {"target": "RPS12 (human) (UniProt P25398)", "experiment": "co-IP/MS, IgG control IP of C-FLAG B3GNT2 cell lysate"}, "[30]": {"target": "CAPZB (human) (UniProt P47756)", "experiment": "co-IP/MS, IgG control IP of C-FLAG B3GNT2 cell lysate"}, "[31]": {"target": "UQCRC2 (human) (UniProt P22695)", "experiment": "co-IP/MS, IgG control IP of C-FLAG B3GNT2 cell lysate"}, "[32]": {"target": "HSD17B12 (human) (UniProt Q53GQ0)", "experiment": "co-IP/MS, IgG control IP of C-FLAG B3GNT2 cell lysate"}, "[33]": {"target": "RPLPO (human) (UniProt P05388)", "experiment": "co-IP/MS, IgG control IP of C-FLAG B3GNT2 cell lysate"}, "[34]": {"target": "DNAJA1 (human) (UniProt P31689)", "experiment": "co-IP/MS, IgG control IP of C-FLAG B3GNT2 cell lysate"}, "[35]": {"target": "TUBB (human) (UniProt P07437)", "experiment": "co-IP/MS, IgG control IP of C-FLAG B3GNT2 cell lysate"}, "[36]": {"target": "ERLIN1 (human) (UniProt O75477)", "experiment": "co-IP/MS, IgG control IP of C-FLAG B3GNT2 cell lysate"}, "[37]": {"target": "RPL12 (human) (UniProt P30050)", "experiment": "co-IP/MS, IgG control IP of C-FLAG B3GNT2 cell lysate"}, "[38]": {"target": "RPL30 (human) (UniProt P62888)", "experiment": "co-IP/MS, IgG control IP of C-FLAG B3GNT2 cell lysate"}}}
{"substance": "C-terminal FLAG tagged B3GNT2 (from UniProt Q9NY97 1-397) (enzyme)", "values": [{"measurement": "co-IP/MS count, C-term flag", "setting": "[1]", "result": 3}, {"measurement": "co-IP mass spectrometry count", "setting": "[2]", "result": 5}]}
{"substance": "IgG control (Millipore Sigma 12-371) (antibody)", "values": [{"measurement": "co-IP mass spectrometry count", "setting": "[3]", "result": 0}, {"measurement": "co-IP mass spectrometry count", "setting": "[4]", "result": 10}, {"measurement": "co-IP mass spectrometry count", "setting": "[5]", "result": 0}, {"measurement": "co-IP mass spectrometry count", "setting": "[6]", "result": 0}, {"measurement": "co-IP mass spectrometry count", "setting": "[7]", "result": 0}, {"measurement": "co-IP mass spectrometry count", "setting": "[8]", "result": 0}, {"measurement": "co-IP mass spectrometry count", "setting": "[9]", "result": 3}, {"measurement": "co-IP mass spectrometry count", "setting": "[10]", "result": 0}, {"measurement": "co-IP mass spectrometry count", "setting": "[11]", "result": 0}, {"measurement": "co-IP mass spectrometry count", "setting": "[12]", "result": 8}, {"measurement": "co-IP mass spectrometry count", "setting": "[13]", "result": 0}, {"measurement": "co-IP mass spectrometry count", "setting": "[14]", "result": 0}, {"measurement": "co-IP mass spectrometry count", "setting": "[15]", "result": 4}, {"measurement": "co-IP mass spectrometry count", "setting": "[16]", "result": 5}, {"measurement": "co-IP mass spectrometry count", "setting": "[17]", "result": 2}, {"measurement": "co-IP mass spectrometry count", "setting": "[18]", "result": 3}, {"measurement": "co-IP mass spectrometry count", "setting": "[19]", "result": 0}, {"measurement": "co-IP mass spectrometry count", "setting": "[20]", "result": 0}, {"measurement": "co-IP mass spectrometry count", "setting": "[21]", "result": 0}, {"measurement": "co-IP mass spectrometry count", "setting": "[22]", "result": 0}, {"measurement": "co-IP mass spectrometry count", "setting": "[23]", "result": 0}, {"measurement": "co-IP mass spectrometry count", "setting": "[24]", "result": 3}, {"measurement": "co-IP mass spectrometry count", "setting": "[25]", "result": 0}, {"measurement": "co-IP mass spectrometry count", "setting": "[26]", "result": 0}, {"measurement": "co-IP mass spectrometry count", "setting": "[27]", "result": 0}, {"measurement": "co-IP mass spectrometry count", "setting": "[28]", "result": 4}, {"measurement": "co-IP mass spectrometry count", "setting": "[29]", "result": 4}, {"measurement": "co-IP mass spectrometry count", "setting": "[30]", "result": 0}, {"measurement": "co-IP mass spectrometry count", "setting": "[31]", "result": 0}, {"measurement": "co-IP mass spectrometry count", "setting": "[32]", "result": 0}, {"measurement": "co-IP mass spectrometry count", "setting": "[33]", "result": 0}, {"measurement": "co-IP mass spectrometry count", "setting": "[34]", "result": 0}, {"measurement": "co-IP mass spectrometry count", "setting": "[35]", "result": 10}, {"measurement": "co-IP mass spectrometry count", "setting": "[36]", "result": 0}, {"measurement": "co-IP mass spectrometry count", "setting": "[37]", "result": 5}, {"measurement": "co-IP mass spectrometry count", "setting": "[38]", "result": 4}]}
